The subject of experiment [1] is APP/PS1 mice (Alzheimer mouse model). The experiment can be described thus: Synaptic formation in hippocampal CA1 and CA3 of APP/PS1 mice. Type of experiment: in vivo. The settings on record: 30 mg/kg intravenous, four consecutive weeks; compared to mutant LRRC4B protein fragment. On the procedure: FIGS. 16A, 16B, and 16C show the ability of LRRC4B peptide fragment (amino acid residues 453-576 of SEQ ID NO: 2; “WT”) (i.e., SEQ ID NO: 7) to promote synaptic formation in the hippocampal CA1 of APP/PS1 mice. As further described in Example 8, APP/PS1 mice were treated with the LRRC4B peptide fragment (30 mg/kg; intravenous administration) for four consecutive weeks, and then synaptic formation was assessed by fluorescence microscopy using antibodies against SYP and PSD95. Control animals received no treatment (“Cont”) or the mutant LRRC4B peptide fragment […] (i.e., comprising alanine substitutions at positions 488 and 489 of SEQ ID NO: 2; SEQ ID NO: 16). FIG. 16A provides representative fluorescent photomicrographs. FIGS. 16B and 16C show the SYP and PSD95 intensity, respectively.
FIGS. 17A, 17B, and 17C show the ability of LRRC4B peptide fragment (amino acid residues 453-576 of SEQ ID NO: 2; “WT”; SEQ ID NO: 7) to promote synaptic formation in the hippocampal CA3 of APP/PS1 mice. The animals were treated and analyzed as described in FIGS. 16A-16C. FIG. 17A provides representative fluorescent photomicrographs. FIGS. 17B and 17C show the SYP and PSD95 intensity, respectively.
Additionally, to confirm the above effect on neurite outgrowth in vivo, APP/PS1 mice (Alzheimer mouse model) were used. […] Hong et al., Science 352(6286): 712-716 (May 2016). […]

The target in experiment [2] is binding of FAM19A5 protein to full-length ectodomain of the LRRC4B protein (amino acids 36-576)-hFc (Homo sapiens, UniProt Q7Z5A7). The experiment can be described thus: Competitive inhibition assay, plate coated with full-length LRRC4B ectodomain. The following applies: 100 nM coated ectodomain; FAM19A5 5 ng/mL; increasing concentrations. On the procedure: Next, to further assess the role that the binding domain of the LRRC4B protein has on the interaction between FAM19A5 protein and members of the LRRC4 protein family, a competitive inhibition assay was used to determine whether different LRRC4B deletion constructs from Example 2 could inhibit the binding of FAM19A5 to the full-length ectodomain of the LRRC4B protein (i.e., amino acids 36-576 of SEQ ID NO: 2; SEQ ID NO: 5). Briefly, 100 nM of the full-length ectodomain of the LRRC4B protein was used to coat a plate, and then recombinant FAM19A5 protein (5 ng/mL) was added to the plate in combination with the following LRRC4B deletion constructs (increasing concentrations): (1) LRRC4B (453-576) (i.e., construct #11 in Table 6); (2) LRRC4B (453-576) mutant (comprises alanine substitutions at positions 488 and 489 of SEQ ID NO: 2; SEQ ID NO: 16); (3) LRRC4B (484-576) (i.e., construct #12 in Table 6); (4) LRRC4B (482-576); (5) LRRC4B (482-497); and (6) LRRC4B (498-576). The plates were incubated at 37° C., and then, the amount of FAM19A5 bound to the coated LRRC4B ectodomain protein was measured using H1RP-conjugated anti-FAM19A5 (1-65) antibody. […]
binding of FAM19A5 protein to full-length ectodomain of the LRRC4B protein (amino acids 36-576)-hFc, sequence (Q7Z5A7 44-132): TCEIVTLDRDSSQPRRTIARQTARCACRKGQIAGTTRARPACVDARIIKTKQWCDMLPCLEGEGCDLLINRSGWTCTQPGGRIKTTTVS

Experiment [3] relates to mouse primary hippocampal neurons. The experiment can be described thus: Synapse formation (SYP, PSD95) in primary hippocampal neurons. Type of experiment: cell-based. The settings on record: 6 or 60 nM. As for the experimental part:
Next, it is generally known that neurites that outgrow from other neurites are capable of differentiating into axons, forming presynapses. Other neurites remain minor neurites and differentiate into dendrites, forming postsynapses. Therefore, whether the LRRC4B (453-576) protein fragment can also affect pre- and post-synaptic formation was also assessed. Briefly, mouse primary hippocampal neurons were cultured in vitro with the LRRC4B (453-576) protein fragment (6 or 60 nM). Control cells were treated with either DMSO (“Veh”) or the mutant LRRC4B (453-576) protein fragment which is not capable of binding to FAM19A5 protein (comprises alanine substitutions at positions 488 and 489). Then, at days 3 and 6 post initial culture, the expression level of synaptophysin (SYP; a presynaptic marker) was assessed. At day 7 post initial culture, the expression level of postsynaptic density 95 (PSD95; a postsynaptic marker) was assessed.
Primary hippocampal neurons were prepared from postnatal pups (postnatal day 1) of C57BL/6 (Nara Biotech, Seoul, Korea) as previously described by Beaudoin et al., Nature protocols 7(9): 1741-1754 (2012), which is incorporated herein by reference in its entirety. Briefly, cortices were dissected in Hank's buffered salt solution (HBSS) (Invitrogen, Carlsbad, CA, USA) and digested with 2.5% trypsin for 15 min at 37° C. […]

This is an account of results in patent US20250333441A1, “POLYPEPTIDE INHIBITORS AND USES THEREOF” (Neuracle Science Co., Ltd., priority 2021, published 2025).

B1: LRRC4B (453-576): LRRC4B fragment, amino acids 453-576 of SEQ ID NO: 2 (SEQ ID NO: 7); used hFc-fused (protein)
chain: VSAVDPVAAGGTGSGGGGPGGSGGVGGGSGGYTYFTTVTVETLETQPGEEALQPRGTEKEPPGPTTDGVWGGGRPGDAAGPASSSTTAPAPRSSRPTEKAFTVPITDVTENALKDLDDVMKTTK
modifications: human Fc fusion in use
notes: used hFc-fused
Turning to B1, the “SYP and PSD95 immunoreactivities in CA1 and CA3” value in experiment [1] is “increased SYP and PSD95 immunoreactivities”. For the same molecule, the “inhibition of FAM19A5 binding to coated full-length LRRC4B ectodomain protein” value in experiment [2] is “able to inhibit FAM19A5 protein from binding”. Further, the “number of puncta colabeled with SYP and PSD95” value in experiment [3] is given as “increased number of puncta”.
